Reference: patent US20250333441A1, “POLYPEPTIDE INHIBITORS AND USES THEREOF” (Neuracle Science Co., Ltd., priority 2021, published 2025)

What was measured:
[1] = tested on: mouse primary hippocampal neurons; test: Synapse formation (SYP, PSD95) in primary hippocampal neurons; assay type: cell-based; conditions: 6 or 60 nM
Experimental: Next, it is generally known that neurites that outgrow from other neurites are capable of differentiating into axons, forming presynapses. Other neurites remain minor neurites and differentiate into dendrites, forming postsynapses. Therefore, whether the LRRC4B (453-576) protein fragment can also affect pre- and post-synaptic formation was also assessed. Briefly, mouse primary hippocampal neurons were cultured in vitro with the LRRC4B (453-576) protein fragment (6 or 60 nM). Control cells were treated with either DMSO (“Veh”) or the mutant LRRC4B (453-576) protein fragment which is not capable of binding to FAM19A5 protein (comprises alanine substitutions at positions 488 and 489). Then, at days 3 and 6 post initial culture, the expression level of synaptophysin (SYP; a presynaptic marker) was assessed. At day 7 post initial culture, the expression level of postsynaptic density 95 (PSD95; a postsynaptic marker) was assessed.
Primary hippocampal neurons were prepared from postnatal pups (postnatal day 1) of C57BL/6 (Nara Biotech, Seoul, Korea) as previously described by Beaudoin et al., Nature protocols 7(9): 1741-1754 (2012), which is incorporated herein by reference in its entirety. Briefly, cortices were dissected in Hank's buffered salt solution (HBSS) (Invitrogen, Carlsbad, CA, USA) and digested with 2.5% trypsin for 15 min at 37° C. […]

[2] = molecular target: T1, FAM19A5 (isoform 2) - full-length LRRC4B protein complex (Homo sapiens, UniProt Q7Z5A7); test: Immunofluorescence: dissociation of FAM19A5 from full-length LRRC4B in HEK293 cells; assay type: cell-based; conditions: HEK293 cells expressing FAM19A5 isoform 2 and LRRC4B, treated 30 minutes
T1 construct: expressed in transfected cells; host or cells: HEK293
Experimental: Since LRRC4B protein fragments containing the binding domain described in Example 2 (e.g., LRRC4B (453-576); i.e., construct #11 in Table 6) was able to bind to FAM19A5 protein with high affinity, it was next assessed whether such protein fragments could compete with naturally existing LRRC4B protein for binding to FAM19A5 protein, and thereby, dissociate the FAM19A5-LRRC4 protein family complex. Briefly, HEK293 cells expressing both FAM19A5 isoform 2 and LRRC4B protein were treated (i.e., cultured in vitro) for 30 minutes with either LRRC4B (453-576)-hFc or mutant LRRC4B (453-576)-hFc (includes alanine substitutions at positions 488 and 489 of SEQ ID NO: 2; SEQ ID NO: 16) protein fragments. Then, the cells were immunostained with anti-FAM19A5 (1-65) and anti-LRRC4B antibodies to determine the expression of FAM19A5 and full-length LRRC4B proteins, respectively. The hFc-fused LRRC4B protein fragments were determined using an anti-hIgG antibody. The nuclei were stained with Hoechst 33342.

[3] = molecular target: binding of FAM19A5 protein to full-length ectodomain of the LRRC4B protein (amino acids 36-576)-hFc (Homo sapiens, UniProt Q7Z5A7); test: Competitive inhibition assay, plate coated with full-length LRRC4B ectodomain; conditions: 100 nM coated ectodomain; FAM19A5 5 ng/mL; increasing concentrations
Experimental: Next, to further assess the role that the binding domain of the LRRC4B protein has on the interaction between FAM19A5 protein and members of the LRRC4 protein family, a competitive inhibition assay was used to determine whether different LRRC4B deletion constructs from Example 2 could inhibit the binding of FAM19A5 to the full-length ectodomain of the LRRC4B protein (i.e., amino acids 36-576 of SEQ ID NO: 2; SEQ ID NO: 5). Briefly, 100 nM of the full-length ectodomain of the LRRC4B protein was used to coat a plate, and then recombinant FAM19A5 protein (5 ng/mL) was added to the plate in combination with the following LRRC4B deletion constructs (increasing concentrations): (1) LRRC4B (453-576) (i.e., construct #11 in Table 6); (2) LRRC4B (453-576) mutant (comprises alanine substitutions at positions 488 and 489 of SEQ ID NO: 2; SEQ ID NO: 16); (3) LRRC4B (484-576) (i.e., construct #12 in Table 6); (4) LRRC4B (482-576); (5) LRRC4B (482-497); and (6) LRRC4B (498-576). The plates were incubated at 37° C., and then, the amount of FAM19A5 bound to the coated LRRC4B ectodomain protein was measured using H1RP-conjugated anti-FAM19A5 (1-65) antibody. […]

Chain of binding of FAM19A5 protein to full-length ectodomain of the LRRC4B protein (amino acids 36-576)-hFc (Q7Z5A7 44-132): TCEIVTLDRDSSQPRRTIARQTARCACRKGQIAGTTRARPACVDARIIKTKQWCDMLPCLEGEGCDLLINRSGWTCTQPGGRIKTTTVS
T1 sequence (Q7Z5A7 1-125 isoform Q7Z5A7-2, one chain of several): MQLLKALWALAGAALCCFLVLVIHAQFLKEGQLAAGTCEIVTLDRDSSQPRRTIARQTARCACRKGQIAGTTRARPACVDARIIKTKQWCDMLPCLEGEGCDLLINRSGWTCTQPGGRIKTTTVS

B1: LRRC4B (453-576): LRRC4B fragment, amino acids 453-576 of SEQ ID NO: 2 (SEQ ID NO: 7); used hFc-fused (protein)
chain: VSAVDPVAAGGTGSGGGGPGGSGGVGGGSGGYTYFTTVTVETLETQPGEEALQPRGTEKEPPGPTTDGVWGGGRPGDAAGPASSSTTAPAPRSSRPTEKAFTVPITDVTENALKDLDDVMKTTK
modifications: human Fc fusion in use
notes: used hFc-fused
For B1, the “number of puncta colabeled with SYP and PSD95” value [1] was “increased number of puncta”, the “dissociation of FAM19A5 from full-length LRRC4B protein” value [2] was “FAM19A5 was largely dissociated from the full-length LRRC4B protein” and the “inhibition of FAM19A5 binding to coated full-length LRRC4B ectodomain protein” value [3] was “able to inhibit FAM19A5 protein from binding”.
